The results in this text go back to patent EP4660205A1 (Beijing Wisdomab Biotechnology Co., Ltd, dated 2025).

Test [1] deals with T1, human IL-36R on the cell surface (HEK-Blue IL-36 cells, HaCAT cells, human CD14+ monocytes) (human, UniProt Q9HB29 20-575).
T1 sequence (looked up): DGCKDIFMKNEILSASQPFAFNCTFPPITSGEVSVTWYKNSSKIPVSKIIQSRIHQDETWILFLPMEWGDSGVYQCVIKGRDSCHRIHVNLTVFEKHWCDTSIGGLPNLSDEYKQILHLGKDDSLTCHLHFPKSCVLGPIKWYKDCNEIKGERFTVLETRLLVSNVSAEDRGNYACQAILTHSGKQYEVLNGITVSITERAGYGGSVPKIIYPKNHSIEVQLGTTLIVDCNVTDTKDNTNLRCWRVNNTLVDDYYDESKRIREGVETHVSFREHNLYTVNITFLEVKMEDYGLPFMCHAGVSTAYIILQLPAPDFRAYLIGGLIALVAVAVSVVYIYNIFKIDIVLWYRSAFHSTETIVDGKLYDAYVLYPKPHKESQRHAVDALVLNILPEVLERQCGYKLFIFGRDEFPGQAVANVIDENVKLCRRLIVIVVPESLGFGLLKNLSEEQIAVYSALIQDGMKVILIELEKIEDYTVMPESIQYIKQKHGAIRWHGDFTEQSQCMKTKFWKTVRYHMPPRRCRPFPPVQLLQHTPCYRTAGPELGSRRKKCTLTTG
In words: cell-based or functional assay.

Test [2] deals with T2, hIL-36R-His (extracellular domain of human IL-36R with C-terminal His tag) (human (homo sapiens), UniProt Q9HB29 20-335).
T2 construct: also called human hIL-36R-His
T2 sequence: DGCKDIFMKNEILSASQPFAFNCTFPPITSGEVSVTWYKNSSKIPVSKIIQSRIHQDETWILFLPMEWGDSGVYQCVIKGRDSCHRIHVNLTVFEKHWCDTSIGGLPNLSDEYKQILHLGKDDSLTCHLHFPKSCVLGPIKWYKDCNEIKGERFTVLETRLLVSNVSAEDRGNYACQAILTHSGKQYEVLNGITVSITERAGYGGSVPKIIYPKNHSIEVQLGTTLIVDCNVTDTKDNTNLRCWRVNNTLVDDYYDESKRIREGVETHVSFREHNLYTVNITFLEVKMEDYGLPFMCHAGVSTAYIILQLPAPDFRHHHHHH
In words: SPR (Biacore T200), antibody captured by anti-human Fc, hIL-36R-His as analyte, 1:1 model.

Substitutions are numbered along the chain they refer to.

B1: R72B7VH+L36E9VK (antibody, V domains shown)
VH: QVQLVQSGAEVKKPGASVKVSCKASGYSFTSSWIHWVKQAPGQGLEWMGEINPGNVRSNYNENFRNKVTMTVDTSISTAYMELSRLRSDDTAVYYCTVINYGEPYFASWGQGTLVTVSS
VL: EIVLTQSPGTLSLSPGERATLSCRASQSVIGSYLAWYQQKPGQAPRLLIYSASKLASGIPDRFSGSGSGTDFTLTISRLEPEDFAVYYCQQDTRYPITFGQGTKVEIK
notes: also called R72B7VH+L36E9VK monoclonal antibody
As for B1, in test [1], the “IC50 for inhibiting IL-36α from inducing hIL-8 secretion by HaCAT cells” value turned out to be 0.508 nM, the “IC50 for inhibiting IL-36β from inducing hIL-8 secretion by HaCAT cells” value came to 0.511 nM and the “IC50 for inhibiting IL-36γ from inducing hIL-8 secretion by HaCAT cells” value turned out to be 3.65 nM. In test [2], this molecule displayed a Kd of 1.65 nM, a dissociation rate constant (koff) of 5.4e-05 s⁻¹ and a kon of 32800 M⁻¹ s⁻¹.

B2: R49E11VH-h3+L36E9VK (antibody, V domains shown)
VH: B1 VH with K38R, N55S, V56G, R65Q, N66G, K67R, I99V, N100F, A107P, S108F
VL: B1 VL
On to B2, for which, in test [2], the Kd is 11.4 nM, the dissociation rate constant (koff) worked out at 9.94e-05 s⁻¹ and the on-rate constant (kon) was 8690 M⁻¹ s⁻¹.
